Assay results: patent publication US10689628B2, “Method of making variant LovD polypeptides” (THE REGENTS OF THE UNIVERSITY OF CALIFORNIA, priority 2009, dated 2020)
Residue numbers refer to the chain shown, from its start. Names may count otherwise. “Also recorded” adds a separate entry of the source.

What was measured:
LovD [1] = target: T1, LovD (Aspergillus terreus, UniProt Q9Y7D1); details: cited from earlier work; for substrate quality for LovD (in words): WO 2007/139871, acyl-CoA substrates; for apparent kcat: WO 2007/139871, acyl donor with LovD and monacolin J; for conversion / acylation of monacolin J with acyl-CoA: WO 2007/139871: 1 mM monacolin J, 4 mM acyl-CoA, 10 uM LovD, 10 hours
T1 construct: made in house; host or cells: E. coli BL21(DE3)/pAW31

LovD [2] = target: T1, LovD; assay: Initial velocities of thioester substrates with pure LovD; assay type: biochemical; details: 1 mM MJ, 4 mM thioester substrate, 10 uM pure LovD, 50 mM HEPES, pH 7.9
MJ acid and DMB-S-MMP = assay: Kinetic assay of LovD wild type and mutants towards MJ acid and DMB-S-MMP; assay type: biochemical
Description: Dimethyl sulfoxide (DMSO) was added to a final concentration of 10% to facilitate the solubilization of DMB-S-MMP. To compare the turnover rate of all mutants and the wild type protein, the MJ acid concentration was set at 1 mM and the DMB-S-MMP was set at 2 mM, the protein concentration was fixed at 10 uM, after the reaction was performed at room temperature for 2 hours, the reaction was quenched by adding EA/2% TFA. The organic phase was dried and redissolved in ACN for HPLC analysis.
The concentration of DMB-S-MMP was fixed at 2 mM and MJ acid concentration was varied from 0.25 mM to 2.0 mM. […] For the rest LovD mutant proteins, we only checked the conversion of one time point.
To obtain KM values for MJA and kcat, the DMB-SMMP concentration was fixed at 2 mM, while the concentration of MJA was varied from 0.25 to 5 mM. To obtain KM values for DMB-SMMP and kcat, the MJA concentration was fixed at 2 mM, while the concentration of DMB-SMMP was varied from 0.5 to 5 mM. Dimethyl sulfoxide (DMSO) was added to a final concentration of 10% to facilitate the solubilization of DMB-SMMP. At different time points of the kinetic assay, an aliquot of the reaction mixture was removed, quenched with 1% TFA and extracted with EA containing 1% acetic acid. The organic phase was separated, dried, resolubilized by acetonitrile (ACN) and analyzed by a Beckman Gold HPLC using a reverse phase C18 column (Alltech Apollo 5μ, 150 mm×4.6 mm) and a linear gradient: 60% ACN in water (0.1% trifluoroacetic acid (TFA)) to 95% ACN in water (0.1% TFA) for 10 min, 1 mL/min. Conversion of MJA to SVA was measured by integration of the peaks at 238 nm.

E. coli YT2 [3] = assay: Whole-cell biocatalysis, MJ acid and DMB-S-MMP to simvastatin acid (Example 1); details: for time to convert 15 mM MJ acid into simvastatin acid: whole cell, culture concentrated 10 times, 18 mM DMB-S-MMP; for whole cell activity compared to the wild type (in words): 8 hours conversion, alanine scanning mutants
Description: Whole cell biocatalytic activities based on the conversion from MJ acid and DMB-S-MMP (gray column) and soluble protein expression level comparison between the wild type LovD and the mutants (black column). For the whole cell activity, the LB culture was concentrated 10 times to mimic high density fermentation, 15 mM MJ acid and 18 mM DMB-S-MMP were used to compare the conversion. The conversion based on 8 hours was used to compare the whole cell activity between the wild type LovD and the mutants. The wild type LovD conversion was normalized to 100%, the data points are averaged values of two runs.
The LovD wild type and all mutants were cultured side-by-side for comparison. A single colony of the freshly transformed strains was used to inoculate a 5 ml LB culture supplemented with 35 mg/L kan and grown overnight at 37° C. The next morning, 100 μl of the overnight culture (0.2%) was inoculated into 50 ml LB medium with Kan. When OD600 reached 0.4˜0.6, 0.1 mM IPTG was added to the culture and expression of LovD was performed at 20° C. for 16 hrs. To mimic the high density fermentation conditions, the cells were concentrated 10-fold before addition of substrates. A 14 ml aliquot of the culture was collected by centrifugation (4° C., 4000 g, 10 min). The cell pellet was gently resuspended in 1330 ml of the supernatant, followed by addition of 70 ml of a MJ acid stock solution (300 mM in water) to make final concentration 15 mM. The concentrated culture was then resuspended and separated into seven 200 μl samples, 1 μl of pure DMB-S-MMP was added to each sample (final concentration ˜20 mM). The cultures were then shaken at 300 rpm at room temperature. At each time point, a total extraction was performed by adding 10 μl of 20% SDS to completely lyse the cells, followed by liquid—liquid extraction with 500 μl EA/2% TFA. The organic phase was removed, evaporated, and redissolved in 500 μl ACN for HPLC analysis.
We then tested the in vivo activity of the nine mutants in comparison to the wild type LovD. Both the mutants and the wild type LovD strains were grown in LB media, expressed and concentrated 10 times to mimic the high density fermentation after 16 hours expression at 20° C. Both MJ acid and DMB-S-MMP were added to final 15 mM and 18 mM respectively to start the reaction. At 8 hours, 100 μl sample culture was taken out to check the total conversion from MJ acid to simvastatin acid.

[4] = Native gel / SDS-PAGE of LovD proteins (oligomer, insoluble protein); assay type: physicochemical; details: for native gel: oligomer / monomer / stability (in words): DTT fixed at 2 mM
Description: FIG. 2. (a) SDS-PAGE gel LovD protein (WT) from E. coli BL21(DE3)/pAW31; (b) native gel of LovD protein (WT) and A1-A8 respectively, DTT was fixed at 2 mM for all samples.
LovD protein was purified to homogeneity by one step Ni-NTA column (FIG. 2a). […] The disulfide bonds between the proteins are spurious for protein crystallization because the monomer and oligomer are different species (see, e.g. Nemoto et al., 2006; J Appl Physiol 100(5):1688-91). One of our purposes was to remove the intermolecular disulfide bonds. By replacing the cysteine residues with alanine, we hope the resultant LovD mutant can keep the acyl-transferase activity while breaking the intermolecular disulfide bonds. […] We reasoned that the solubility of LovD may be changed when the intermolecular disulfide bonds between wild type LovD was eliminated (see, e.g. Lindberg et al., M. 2004; Proc Natl Acad Sci USA 101(45):15893-8).
We ran the native gel of all the mutant proteins together with the wild type LovD protein (FIG. 2b).

E. coli YT2 [5] = assay: Whole-cell biocatalysis activity of LovD G0 and directed-evolution mutants (SVA synthesis)
Description: Wild type LovD and all mutants were cultured in parallel for comparison. A single colony of the freshly transformed YT2 competent cells was used to inoculate a 5 mL LB culture supplemented with 35 mg/L kanamycin. Following overnight growth at 37° C., 100 μl of the culture was inoculated into 50 mL LB medium supplemented with 35 mg/L kanamycin. When OD600 reached 0.4˜0.6, 0.1 mM IPTG was added to the cultures and expression of all LovD variants was performed at 25° C. for 16 hr. To mimic the high density fermentation conditions, the cells were then concentrated 10-fold before addition of substrates. A 10 ml aliquot of each culture was collected by centrifugation (4° C., 2,000 g, 10 min). The cell pellet was gently resuspended in 1 ml of the medium supernatant, followed by addition of 70 μl of MJA (300 mM stock) to a final concentration of 15 mM. The concentrated culture was then divided into seven 200 μl aliquots and 1 μl of pure DMB-SMMP was added to each sample to a final concentration of 20 mM. The small cultures were then shaken at 300 rpm at 25° C. At each time point, a complete extraction of one culture aliquot was performed by adding 10 μl of 20% SDS for cells lysis, followed by extraction with 500 μl ethyl acetate containing 1% trifluoroacetic acid TFA. The organic phase was removed, evaporated, and redissolved in 500 μl acetonitrile for HPLC analysis. The whole-cell activity was determined by fitting the linear regions of the conversion time course plot.
Parent LovD G0 and all mutants were cultured in parallel for comparison. A single colony of the freshly transformed YT2 competent cells was used to inoculate a 5 mL LB culture supplemented with 35 mg/L kanamycin. Following overnight growth at 37° C., 100 μl of the culture was inoculated into 50 mL LB medium supplemented with 35 mg/L kanamycin. When OD600 reached 0.4˜0.6, 0.1 mM IPTG was added to the cultures and expression of all LovD variants was performed at 25° C. for 16 hr. To mimic the high density fermentation conditions, the cells were then concentrated 10-fold before addition of substrates. A 10 ml aliquot of each culture was collected by centrifugation (4° C., 2,000 g, 10 min). The cell pellet was gently resuspended in 1 ml of the medium supernatant, followed by addition of 70 μl of MJA (300 mM stock) to a final concentration of 15 mM. The concentrated culture was then divided into seven 200 μl aliquots and 1 μl of pure DMB-SMMP was added to each sample to a final concentration of 20 mM. The small cultures were then shaken at 300 rpm at 25° C. At each time point, a complete extraction of one culture aliquot was performed by adding 10 μl of 20% SDS for cells lysis, followed by extraction with 500 μl ethyl acetate containing 1% trifluoroacetic acid TFA. The organic phase was removed, evaporated, and redissolved in 500 μl acetonitrile for HPLC analysis. The whole-cell activity was determined by fitting the linear regions of the conversion time course plot.

[6] = DMB-S-MMP fixed at 2 mM, MJ acid 0.25 mM to 2.0 mM

CC(=O)CC(=O)SCCNC(=O)CCNC(=O)[C@H](O)C(C)(C)COP(=O)(O)OP(=O)(O)OC[C@H]1O[C@@H](n2cnc3c(N)ncnc32)[C@H](O)[C@@H]1OP(=O)(O)O [Acetoacetyl-CoA]
substrate quality for LovD (in words) (LovD [1]): excellent substrates

CCOC(=O)CCSC(=O)C(C)(C)CC [DMB-S-EMP, dimethylbutyryl-S-ethyl mercaptopropionate]
Initial Velocity (ki) (LovD [2]): 0.70 min⁻¹

CCC(C)(C)C(=O)SCCCC(=O)OC [DMB-S-MMB, dimethylbutyryl-S-methyl mercaptobutyrate]
Initial Velocity (ki) (LovD [2]): 0.78 min⁻¹

CCC(C)(C)C(=O)SCCC(=O)O [DMB-S-MPA]
Initial Velocity (ki) (LovD [2]): 0.08 min⁻¹

CCC(C)(C)C(=O)SCC(=O)OC [DMB-S-MTG, dimethylbutyryl-S-methyl thioglycolate]
Initial Velocity (ki) (LovD [2]): 0.03 min⁻¹

CCC(C)(C)C(=O)SCCNC(C)=O [DMB-S-NAC, α-dimethylbutyryl-SNAC]
Initial Velocity (ki) (LovD [2]): 0.02 min⁻¹

CCCC(=O)SCCNC(C)=O [SNAC, butyryl-SNAC]
apparent kcat (LovD [1]): 0.0015 s⁻¹

CC(C)(COP(=O)(O)OP(=O)(O)OC[C@H]1O[C@@H](n2cnc3c(N)ncnc32)[C@H](O)[C@@H]1OP(=O)(O)O)[C@@H](O)C(=O)NCCC(=O)NCCSC(=O)c1ccccc1 [benzoyl-CoA]
apparent kcat (LovD [1]): 0.00267 s⁻¹ | conversion / acylation of monacolin J with acyl-CoA (LovD [1]): ~70%

CCCC(=O)SCCNC(=O)CCNC(=O)[C@H](O)C(C)(C)COP(=O)(O)OP(=O)(O)OC[C@H]1O[C@@H](n2cnc3c(N)ncnc32)[C@H](O)[C@@H]1OP(=O)(O)O [butyryl-CoA]
substrate quality for LovD (in words) (LovD [1]): optimal alkylacyl-CoA substrate

C/C=C/C(=O)SCCNC(=O)CCNC(=O)[C@H](O)C(C)(C)COP(=O)(O)OP(=O)(O)OC[C@H]1O[C@@H](n2cnc3c(N)ncnc32)[C@H](O)[C@@H]1OP(=O)(O)O [crotonyl-CoA]
conversion / acylation of monacolin J with acyl-CoA (LovD [1]): 6%

CC(C)(COP(=O)(O)OP(=O)(O)OC[C@H]1O[C@@H](n2cnc3c(N)ncnc32)[C@H](O)[C@@H]1OP(=O)(O)O)[C@@H](O)C(=O)NCCC(=O)NCCSC(=O)CC(=O)O [malonyl-CoA]
substrate quality for LovD (in words) (LovD [1]): inactive

CCCCCCCCCCCCCCCC(=O)SCCNC(=O)CCNC(=O)[C@H](O)C(C)(C)COP(=O)(O)OP(=O)(O)OC[C@H]1O[C@@H](n2cnc3c(N)ncnc32)[C@H](O)[C@@H]1OP(=O)(O)O [palmitoyl-CoA]
substrate quality for LovD (in words) (LovD [1]): inactive

CC[C@H](C)C(=O)SCCNC(C)=O [α-S-methylbutyryl-SNAC]
apparent kcat (LovD [1]): ~0.00067 s⁻¹

CC(O)CC(=O)SCCNC(=O)CCNC(=O)[C@H](O)C(C)(C)COP(=O)(O)OP(=O)(O)OC[C@H]1O[C@@H](n2cnc3c(N)ncnc32)[C@H](O)[C@@H]1OP(=O)(O)O (stereo partly drawn) [β-hydroxylbutyryl-CoA]
substrate quality for LovD (in words) (LovD [1]): excellent substrates

B1: wild type LovD: A. terreus LovD acyltransferase polypeptide, SEQ ID NO: 1 (protein, listed as Aspergillus terreus)
chain: MGSIIDAAAAADPVVLMETAFRKAVKSRQIPGAVIMARDCSGNLNYTRCFGARTVRRDECNQLPPLQVDTPCRLASATKLLTTIMALQCMERGLVDLDETVDRLLPDLSAMPVLEGFDDAGNARLRERRGKITLRHLLTHTSGLSYVFLHPLLREYMAQGHLQSAEKFGIQSRLAPPAVNDPGAEWIYGANLDWAGKLVERATGLDLEQYLQENICAPLGITDMTFKLQQRPDMLARRADQTHRNSADGRLRYDDSVYFRADGEECFGGQGVFSGPGSYMKVLHSLLKRDGLLLQPQTVDLMFQPALEPRLEEQMNQHMDASPHINYGGPMPMVLRRSFGLGGIIALEDLDGENWRRKGSLTFGGGPNIVWQIDPKAGLCTLAFFQLEPWNDPVCRDLTRTFEHAIYAQYQQG
Km (MJ acid and DMB-S-MMP; [6]): 640 µM | kcat (MJ acid and DMB-S-MMP; [6]): 0.62 min⁻¹ | kcat (MJ acid and DMB-S-MMP; FIG. 1 legend, MJ acid and DMB-S-MMP to simvastatin): 0.6 min' | time to convert 15 mM MJ acid into simvastatin acid (E. coli YT2 [3]): 12 h | fraction of LovD protein forming oligomer ([4]; native gel, even at high DTT concentration): ~20% | fraction of expressed LovD protein insoluble ([4]; overexpressed in E. coli): more than 50%

B2: A5: LovD C89A mutant (protein, UniProt Q9Y7D1 1-413, looked up, variant C89A)
Monacolin J acid …: B1 chain with C89A
native gel: oligomer / monomer / stability (in words) [4]: not very stable; also recorded: less proteins

B3: A7: LovD C266A mutant (protein, UniProt Q9Y7D1 1-413, looked up, variant C266A)
Monacolin J acid …: B1 chain with C266A
native gel: oligomer / monomer / stability (in words) [4]: not very stable; also recorded: less proteins

B4: A2: LovD C49A mutant (protein, UniProt Q9Y7D1 1-413, looked up, variant C49A)
Monacolin J acid …: B1 chain with C49A
native gel: oligomer / monomer / stability (in words) [4]: very similar to WT

B5: A9: LovD C395A mutant (protein, UniProt Q9Y7D1 1-413, looked up, variant C395A)
Monacolin J acid …: B1 chain with C395A
whole cell activity compared to the wild type (in words) (E. coli YT2 [3]): no activity | native gel: oligomer / monomer / stability (in words) [4]: no soluble proteins at all

B6: A6: LovD C216A mutant (protein, UniProt Q9Y7D1 1-413, looked up, variant C216A)
Monacolin J acid …: B1 chain with C216A
native gel: oligomer / monomer / stability (in words) [4]: very similar to WT

B7: A3: LovD C60A mutant (protein, UniProt Q9Y7D1 1-413, looked up, variant C60A)
Monacolin J acid …: B1 chain with C60A
Km (MJ acid and DMB-S-MMP; [6]): 660 µM | kcat (MJ acid and DMB-S-MMP; [6]): 0.64 min⁻¹ | whole cell activity compared to the wild type (in words) (E. coli YT2 [3]): slightly higher activity | native gel: oligomer / monomer / stability (in words) [4]: almost all monomers; also recorded: eliminated most of the oligomer

B8: A1N3: LovD double mutant C40A/C60N, starting point (generation zero) of directed evolution (protein, UniProt Q9Y7D1 1-413, looked up, variant C40A C60N)
Monacolin J acid …: B1 chain with C40A, C60N
faster than the single mutant A1 and N3 (E. coli YT2 [3]; whole cell time course): about 20% | time to convert 15 mM MJ acid into simvastatin acid (E. coli YT2 [3]): ~8 h | whole cell SVA production rate (E. coli YT2 [5]; 25° C.): ~1.7 mM per hour | whole cell activity when expressed at 32° C. (in words) (E. coli YT2 [5]; 32° C.): did not show any activity | whole-cell conversion rate (E. coli YT2 [5]; normalized to 1 in FIG. 13): 1.7 mM/h

B9: A8: LovD C380A mutant (protein, UniProt Q9Y7D1 1-413, looked up, variant C380A)
Monacolin J acid …: B1 chain with C380A
native gel: oligomer / monomer / stability (in words) [4]: very similar to WT

B10: A4: LovD C72A mutant (protein, UniProt Q9Y7D1 1-413, looked up, variant C72A)
Monacolin J acid …: B1 chain with C72A
native gel: oligomer / monomer / stability (in words) [4]: not very stable; also recorded: less proteins
